Measurements: US20180179267A1 (published 2018)

T1: Hla
T1 chain: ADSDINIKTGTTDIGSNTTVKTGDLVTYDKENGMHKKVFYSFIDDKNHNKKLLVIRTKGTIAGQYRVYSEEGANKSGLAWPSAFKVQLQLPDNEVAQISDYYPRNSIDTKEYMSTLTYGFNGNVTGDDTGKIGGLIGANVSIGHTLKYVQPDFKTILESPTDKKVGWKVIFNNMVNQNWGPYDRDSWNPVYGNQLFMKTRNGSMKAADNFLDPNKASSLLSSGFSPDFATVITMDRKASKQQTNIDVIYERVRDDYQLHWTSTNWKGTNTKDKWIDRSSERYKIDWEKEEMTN

T2: LukF
T2 chain: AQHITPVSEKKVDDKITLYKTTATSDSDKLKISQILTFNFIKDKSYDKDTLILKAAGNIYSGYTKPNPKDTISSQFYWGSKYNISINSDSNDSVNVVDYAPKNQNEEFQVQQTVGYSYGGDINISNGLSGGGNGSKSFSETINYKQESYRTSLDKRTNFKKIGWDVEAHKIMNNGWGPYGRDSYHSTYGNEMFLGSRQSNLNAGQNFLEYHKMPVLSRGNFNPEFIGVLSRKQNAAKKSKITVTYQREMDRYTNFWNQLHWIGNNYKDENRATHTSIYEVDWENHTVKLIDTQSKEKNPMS

T3: HlgB
T3 chain: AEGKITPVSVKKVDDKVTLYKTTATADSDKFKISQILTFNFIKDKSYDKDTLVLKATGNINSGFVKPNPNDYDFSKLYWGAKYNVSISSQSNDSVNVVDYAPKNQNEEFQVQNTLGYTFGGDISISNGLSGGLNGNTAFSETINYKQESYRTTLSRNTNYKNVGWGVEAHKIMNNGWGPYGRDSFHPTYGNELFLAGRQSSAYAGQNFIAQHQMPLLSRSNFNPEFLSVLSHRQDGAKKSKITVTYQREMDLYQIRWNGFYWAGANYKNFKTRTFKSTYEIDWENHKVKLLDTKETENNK

T4: LukD
T4 chain: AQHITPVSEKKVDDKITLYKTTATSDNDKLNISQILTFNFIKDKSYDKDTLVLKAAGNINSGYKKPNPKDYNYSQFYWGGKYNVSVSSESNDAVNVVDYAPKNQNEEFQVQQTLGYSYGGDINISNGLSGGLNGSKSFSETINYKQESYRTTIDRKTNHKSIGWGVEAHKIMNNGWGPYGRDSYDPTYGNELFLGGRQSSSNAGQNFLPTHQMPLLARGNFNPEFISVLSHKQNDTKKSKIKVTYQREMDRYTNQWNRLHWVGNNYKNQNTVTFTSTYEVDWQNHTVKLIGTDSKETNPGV


Tests used:
Hla = target: T1, Hla
LukF = target: T2, LukF; experiment: MSD solution equilibrium; Fab
HlgB = target: T3, HlgB; experiment: MSD solution equilibrium; Fab
LukD = target: T4, LukD; experiment: MSD solution equilibrium; Fab

Row | Binder | Kd (Hla) [nM] | Kd (LukF) [nM] | Kd (HlgB) [nM] | Kd (LukD) [nM]
1 | AB-28-6 (antibody, V domains shown) VH: QVQLQESGPGLVRPSETLSLTCAVSGYSISSGMGWGWIRQPPGKGLEWIGSIDQRGSTYYNPSLKSRVTISVDTSKNQFSLKLSSVTAADTAVYYCARDAGHAVDMDVWGKGTTVTVSS VL: DIQMTQSPSSVSASVGDRVTITCRASQGISRWLAWYQQKPGKAPKLLIYAASSLQSGVPSRFSGSGSGTDFTLTISSLQPEDFATYYCQQGYVFPLTFGGGTKVEIK | < 0.002 | 0.016 | 0.0025 | 0.4
2 | AB-28-11 (antibody, V domains shown) VH: QVQLQESGPGLVKPSETLSLTCAVSGYSISSGMGWDWIRQPPGKGLEWIGSIDQRGSTYYNPSLEGRVTISVDTSKNQFSLKLSSVTAADTAVYYCARDAGHGVDMDVWGKGTTVTVSS VL: DIQMTQSPSSVSASVGDRVTITCRASQGISRWLAWYQQKPGKAPKLLIYAASSLQSGVPSRFSGSGSGTDFTLTISSLQPEDFATYYCQQGYVFPLTFGGGTKVEIK | < 0.002 | 0.071 | 0.003 | 1.2
3 | AB-28-9 (antibody, V domains shown) VH: EVQLQESGPGLVRPSETLSLTCAVSGYSISSGMGWGWIRQPPGKGLEWIGSIDQRGSTYYNPSLKSRVTISVDTSKNQFSLKLSSVTAADTAVYYCARDAGHAVDMDVWGKGTTVTVSS VL: DIQMTQSPSSVSASVGDRVTITCRASQGISRWLAWYQQKPGKAPKLLIYAASSLQSGVPSRFSGSGSGTDFTLTISSLQPEDFATYYCQQGYVFPLTFGGGTKVEIK | < 0.002 | 0.13 | 0.005 | 2.2
4 | AB-28-3 (antibody, V domains shown) VH: QVQLQESGPGLVKPSETLSLTCAVSGYSISSGMGWGWIRQPPGKGLEWIGSVDQRGSTYYNPSLKSRVTISVDTSKNQFSLKLSSVTAADTAVYYCARDAGHGADMDVWGKGTTVTVSS VL: DIQMTQSPSSVSASVGDRVTITCRASQGISRWLAWYQQKPGKAPKLLIYAASSLQSGVPSRFSGSGSGTDFTLTISSLQPEDFATYYCQQGYVFPLTFGGGTKVEIK | 0.037 | < 0.003 | 0.018 | 1.7
5 | AB-28-8 (antibody, V domains shown) VH: QVQLQESGPGLVKPSETLSLTCAVSGYSISSGMGWDWIRQPPGKGLEWIGSIDQRGSTYYNPPLESRVTISVDTSKNQFSLKLSSVTAADTAVYYCARDAGHGVDMDVWGKGTTVTVSS VL: DIQMTQSPSSVSASVGDRVTITCRASQGISRWLAWYQQKPGKAPKLLIYAASSLQSGVPSRFSGSGSGTDFTLTISSLQPEDFATYYCQQGYVFPLTFGGGTKVEIK | < 0.002 | 0.046 | 0.002 | 0.78
6 | AB-28-4 (antibody, V domains shown) VH: QVQLQESGPGLVKPSETLSLTCAVSGYPISSGMGWGWIRQPPGKGLEWIGRIDQRGSTYYNPSLKSRATISVDTSKNQFSLKLSSVTAADTAVYYCARDAGHGVDMDVWGKGTTVTVSS VL: DIQMTQSPSSVSASVGDRVTITCRASQGISRWLAWYQQKPGKAPKLLIYAASSLQSGVPSRFSGSGSGTDFTLTISSLQPEDFATYYCQQGYVFPLTFGGGTKVEIK | 0.023 | – | 0.14 | 0.086
7 | AB-28-13 (antibody, V domains shown) VH: QVQLQESGPGLVKPSETLSLTCAVSGYSISSGMGWDWIRQPPGKGLEWIGSIDQRGSTYYNPSLEGRATISVDTSKNQFSLKLSSVTAADTAVYYCARDAGHGVDMDVWGKGTTVTVSS VL: DIQMTQSPSSVSASVGDRVTITCRASQGISRWLAWYQQKPGKAPKLLIYAASSLQSGVPSRFSGSGSGTDFTLTISSLQPEDFATYYCQQGYVFPLTFGGGTKVEIK | < 0.002 | 0.089 | 0.003 | 0.79
8 | AB-28-12 (antibody, V domains shown) VH: QVQLQESGPGLVKPSETLSLTCAVSGYSISSGMGWDWIRQPPGKGREWIGSIDQRGSTYYNPSLEGRVTISVDTSKNQFSLKLSSVTAADTAVYYCARDAGHGVDMDVWGKGTTVTVSS VL: DIQMTQSPSSVSASVGDRVTITCRASQGISRWLAWYQQKPGKAPKLLIYAASSLQSGVPSRFSGSGSGTDFTLTISSLQPEDFATYYCQQGYVFPLTFGGGTKVEIK | < 0.002 | 0.063 | < 0.002 | 0.46
9 | AB-28 (antibody, V domains shown) VH: QVQLQESGPGLVKPSETLSLTCAVSGYSISSGMGWGWIRQPPGKGLEWIGSIDQRGSTYYNPSLKSRVTISVDTSKNQFSLKLSSVTAADTAVYYCARDAGHGVDMDVWGKGTTVTVSS VL: DIQMTQSPSSVSASVGDRVTITCRASQGISRWLAWYQQKPGKAPKLLIYAASSLQSGVPSRFSGSGSGTDFTLTISSLQPEDFATYYCQQGYVFPLTFGGGTKVEIK | < 0.002 | 0.13 | 0.005 | 2.2
10 | AB-28-10 (antibody, V domains shown) VH: QVQLQESGPGLVKPSETLSLTCAVSGYSISSGMGWGWIRQPPGKGLEWIGSIDQRGSTYYNPSLKSRVTISVDTSKNQFSLKLSSVTAADTAVYYCARDAGHAVDMDVWGKGTTVTVSS VL: DIQMTQSPSSVSASVGDRVTITCRASQGISRWLAWYQQKPGKAPKLLIYAASSLQSGVPSRFSGSGSGTDFTLTISSLQPEDFATYYCQQGYVFPLTFGGGTKVEIK | < 0.002 | 0.017 | 0.006 | 0.45
11 | AB-28-7 (antibody, V domains shown) VH: QVQLQESGPGLVKPSETLSLTCAVSGYSISSGMGWDWIRQPPGKGREWIGSIDQRGSTYYNPSLEGRATISVDTSKNQFSLKLSSVTAADTAVYYCARDAGHGVDMDVWGKGTTVTVSS VL: DIQMTQSPSSVSASVGDRVTITCRASQGISRWLAWYQQKPGKAPKLLIYAASSLQSGVPSRFSGSGSGTDFTLTISSLQPEDFATYYCQQGYVFPLTFGGGTKVEIK | < 0.002 | 0.052 | < 0.002 | 0.29
12 | AB-28-5 (antibody, V domains shown) VH: QVQLQESGPGLVKPSETLSLTCAVSGYSISSGMGWGWIRQPPGKGLEWIGRVDQRGSTYYNPSLKSRVTISVDTSKNQFSLKLSSVTAADTAVYYCARDAGHGVDMDVWGKGTTVTVSS VL: DIQMTQSPSSVSASVGDRVTITCRASQGISRWLAWYQQKPGKAPKLLIYAASSLQSGVPSRFSGSGSGTDFTLTISSLQPEDFATYYCQQGYVFPLTFGGGTKVEIK | 0.03 | – | 0.16 | 0.16
